Reference: patent US20060286112A1 (published 2006)

Key:
[1] = target: T1, human VLA-1 (alpha 1/beta 1, CD49a/CD29) on IL-2 stimulated human PBMC / T cells (human, UniProt P56199 29-1179; P05556 21-798); experiment: cell-based or functional assay
[2] = target: T2, human VLA-1 α1 subunit (CD49a), full-length, on transfected CHO cells (human, UniProt P56199 29-1179); experiment: cell-based or functional assay
[3] = target: T3, human CD49a I domain E48K (human, UniProt P56199 151-364, E48K); experiment: ELISA on secreted mutant I domain
T3 construct: domain: I domain; not shown: myc and His tags

[4] = target: T4, human CD49a I domain E66A (human, UniProt P56199 151-364, E66A); experiment: ELISA on secreted mutant I domain
T4 construct: domain: I domain; not shown: myc and His tags

[5] = target: T5, human CD49a I domain K88N (human, UniProt P56199 151-364, K88N); experiment: ELISA on secreted mutant I domain
T5 construct: domain: I domain; not shown: myc and His tags

[6] = target: T6, human CD49a I domain S162H (human, UniProt P56199 151-364, S162H); experiment: ELISA on secreted mutant I domain
T6 construct: domain: I domain; not shown: myc and His tags

[7] = target: T7, human CD49a I domain with residues 91-96 VQRGGR replaced by mouse GRRGGL (human, UniProt P56199 151-364, V91G; Q92R; R96L); experiment: ELISA on secreted mutant I domain
T7 construct: domain: I domain; also called V91G, Q92R, R96L; not shown: myc and His tags

[8] = target: T8, human CD49a I domain I11F (human, UniProt P56199 151-364, I11F); experiment: ELISA on secreted mutant I domain
T8 construct: domain: I domain; not shown: myc and His tags

[9] = target: T9, human CD49a I domain T204A (human, UniProt P56199 151-364, T204A); experiment: ELISA on secreted mutant I domain
T9 construct: domain: I domain; not shown: myc and His tags

[10] = target: T10, human CD49a I domain K142Q (human, UniProt P56199 151-364, K142Q); experiment: ELISA on secreted mutant I domain
T10 construct: domain: I domain; text prints KI42Q once; not shown: myc and His tags

[11] = target: T1, human VLA-1 (alpha 1/beta 1, …); experiment: cell-based or functional assay; remark: listed apart in the source
[12] = target: T1, human VLA-1 (alpha 1/beta 1, …); experiment: cell-based or functional assay; remark: listed apart in the source
[13] = target: T2, human VLA-1 α1 subunit (CD49a), …; experiment: cell-based or functional assay; remark: listed apart in the source
[14] = target: T1, human VLA-1 (alpha 1/beta 1, …); experiment: cell-based or functional assay; remark: listed apart in the source

| Binder | % adhesion of T cells to collagen IV vs no antibody, 0.5 nM mAb, no PMA [1] [%] | % adhesion of T cells to collagen IV vs no antibody, 5 nM mAb, no PMA [1] [%] | IC50, adhesion of CHO-VLA-1 cells to collagen IV [2] [nM] | binding result [3] | binding result [4] | binding result [5] | binding result [6] | binding result [7] | binding result [8] | binding result [9] | binding result [10] | % adhesion of IL-2 activated T cells to collagen IV vs no antibody, 10 µg/ml, +PMA [11] [%] | % adhesion of IL-2 activated T cells to collagen IV vs no antibody, 10 µg/ml, -PMA [11] [%] | % adhesion of T cells to collagen IV vs no antibody, 0.5 nM mAb, 10 ng/ml PMA [12] [%] | % adhesion of T cells to collagen IV vs no antibody, 5 nM mAb, 10 ng/ml PMA [12] [%] | relative inhibition at an optimal concentration, CHO-VLA-1 adhesion to collagen IV [13] [%] | T cell adhesion to immobilized collagen IV, relative estimated IC50 [14] [nM] |
| --- | --- | --- | --- | --- | --- | --- | --- | --- | --- | --- | --- | --- | --- | --- | --- | --- | --- |
| 7.7 (antibody, V domains shown, human IgG2 or IgG4) VH: not shown VL: DIVMTQSPESLAVSLGERTTINCKSSQSVLFSSNNENHLAWYQQKPGQPPKLLIYWASTRESGVPDRFSGSGSGTDFTLTISSLQAEDVAVYYCQQYYITPCSFGQGTKLEIK | 113 | 66.5 | 0.59 | no binding | binds | binds | binds | binds | binds | binds | binds | 27.4 | 40.1 | 96.6 | 91.9 | – | – |
| 2.19 (antibody, V domains shown, human IgG2 or IgG4) VH: QVQLQESGPGLVKPSETLSLTCTVSGDSISSYYWSWIRQPPGKGLEWIGYVYYSGSTNYNPSLKSRVTMSVDTSKNQFSLKLSSVTAADTAVYYCARDLELYAFDIWGQGTMVTVSS VL: EIVLTQFPGTLSLSPGERVTLSCRASQSVSSTYVVWYQQKPGQAPRLLIYGASSRATGIPDRFSGSGSGTDFTLTISRLEPEDFAVYYCQQHGSSPWTFGQGTKVEIK | – | – | 0.47 | binds | no binding | binds | binds | no binding | binds | binds | binds | – | – | – | – | > 80 | – |

The next lines start with the values.

| % adhesion of T cells to collagen IV vs no antibody, 0.5 nM mAb, no PMA [1] [%] | % adhesion of T cells to collagen IV vs no antibody, 5 nM mAb, no PMA [1] [%] | IC50, adhesion of CHO-VLA-1 cells to collagen IV [2] [nM] | binding result [3] | binding result [4] | binding result [5] | binding result [6] | binding result [7] | binding result [8] | binding result [9] | binding result [10] | % adhesion of IL-2 activated T cells to collagen IV vs no antibody, 10 µg/ml, +PMA [11] [%] | % adhesion of IL-2 activated T cells to collagen IV vs no antibody, 10 µg/ml, -PMA [11] [%] | % adhesion of T cells to collagen IV vs no antibody, 0.5 nM mAb, 10 ng/ml PMA [12] [%] | % adhesion of T cells to collagen IV vs no antibody, 5 nM mAb, 10 ng/ml PMA [12] [%] | relative inhibition at an optimal concentration, CHO-VLA-1 adhesion to collagen IV [13] [%] | T cell adhesion to immobilized collagen IV, relative estimated IC50 [14] [nM] | Binder |
| --- | --- | --- | --- | --- | --- | --- | --- | --- | --- | --- | --- | --- | --- | --- | --- | --- | --- |
| 70.7 | 25 | 0.08 | binds | binds | binds | binds | no binding | binds | binds | binds | 23.7 | 49.2 | 89.8 | 56.6 | > 80 | – | 6.44 (antibody, V domains shown, human IgG2 or IgG4) VH: QVQLQESGPGLVKPSQTLSLICTVSGGSISRGDSYWSWIRQHPGKGLEWIGYIYYSGSTFYNPSLKSRVTISVDTSKNQFSLKLSSVTAADTAVYYCAREDRIFGVVDYWGQGTLVTVSS VL: not shown |
| 101 | 76.6 | 1 | – | – | – | – | – | – | – | – | 38.4 | 40.9 | 96.7 | 86.8 | – | > 5 | 10.1 (antibody, V domains shown) VH: QVQLQQSGPGLVKPSETLSLTCTVSGASISSYYWSWIRQPAGKGLEWIGRIYASGSTNYNPSLKSRVTMSVDTSKSQFSLNLSSVTAADTAVYYCAREGWERLQDYYYYGLDVWGQGTTVTVSS VL: EIVLTQSPGTLSLSPGERATLSCRASQSVSRNYLAWNQQKPGQAPRLLIYGASSRATGIPDRFSGSGSGTDFTLTISRLEPEDFAVYYCQQYGSSPLTFGGGTKVEIK |
